Columns and labels:
Experiment in all cases: -; previously described evasin
CCL3L1_HUMAN = target: CCL3L1_HUMAN
CXCL1_HUMAN = target: CXCL1_HUMAN
CCL14_HUMAN = target: CCL14_HUMAN
CCL7_HUMAN = target: CCL7_HUMAN
CCL16_HUMAN = target: CCL16_HUMAN
CCL26_HUMAN = target: CCL26_HUMAN
CCL21_HUMAN = target: CCL21_HUMAN
CCL23_HUMAN = target: CCL23_HUMAN
CCL24_HUMAN = target: CCL24_HUMAN

EVASIN1
Kd (CCL3L1_HUMAN): 0.05 nM

EVASIN3
Kd (CXCL1_HUMAN): 0.85 nM

EVASIN4
Kd (CCL14_HUMAN): 0.14 nM | Kd (CCL7_HUMAN): 0.7 nM | Kd (CCL16_HUMAN): 0.26 nM | Kd (CCL26_HUMAN): 0.88 nM | Kd (CCL21_HUMAN): 0.01 nM | Kd (CCL23_HUMAN): 4.43 nM | Kd (CCL24_HUMAN): 0.41 nM

Reference: patent US20220175942A1
